How the values were obtained:
BIP = biological target: T1, BIP (human, UniProt P11021 19-654); assay: anti-FLAG immunoprecipitation from HEK 293 T lysate, SDS-PAGE; band identified by mass spectrometry (Table 1)
T1 construct: Endogenous protein co-precipitated from HEK 293 T lysate; also called GRP78

DNA-PKcs = biological target: T2, DNA-PKcs (human, UniProt P78527 1-4128); assay: as above
T2 construct: Endogenous protein co-precipitated from HEK 293 T lysate and identified by mass spectrometry; also called DNK-PKcs; PRKDC
T2 sequence (P78527 whole entry): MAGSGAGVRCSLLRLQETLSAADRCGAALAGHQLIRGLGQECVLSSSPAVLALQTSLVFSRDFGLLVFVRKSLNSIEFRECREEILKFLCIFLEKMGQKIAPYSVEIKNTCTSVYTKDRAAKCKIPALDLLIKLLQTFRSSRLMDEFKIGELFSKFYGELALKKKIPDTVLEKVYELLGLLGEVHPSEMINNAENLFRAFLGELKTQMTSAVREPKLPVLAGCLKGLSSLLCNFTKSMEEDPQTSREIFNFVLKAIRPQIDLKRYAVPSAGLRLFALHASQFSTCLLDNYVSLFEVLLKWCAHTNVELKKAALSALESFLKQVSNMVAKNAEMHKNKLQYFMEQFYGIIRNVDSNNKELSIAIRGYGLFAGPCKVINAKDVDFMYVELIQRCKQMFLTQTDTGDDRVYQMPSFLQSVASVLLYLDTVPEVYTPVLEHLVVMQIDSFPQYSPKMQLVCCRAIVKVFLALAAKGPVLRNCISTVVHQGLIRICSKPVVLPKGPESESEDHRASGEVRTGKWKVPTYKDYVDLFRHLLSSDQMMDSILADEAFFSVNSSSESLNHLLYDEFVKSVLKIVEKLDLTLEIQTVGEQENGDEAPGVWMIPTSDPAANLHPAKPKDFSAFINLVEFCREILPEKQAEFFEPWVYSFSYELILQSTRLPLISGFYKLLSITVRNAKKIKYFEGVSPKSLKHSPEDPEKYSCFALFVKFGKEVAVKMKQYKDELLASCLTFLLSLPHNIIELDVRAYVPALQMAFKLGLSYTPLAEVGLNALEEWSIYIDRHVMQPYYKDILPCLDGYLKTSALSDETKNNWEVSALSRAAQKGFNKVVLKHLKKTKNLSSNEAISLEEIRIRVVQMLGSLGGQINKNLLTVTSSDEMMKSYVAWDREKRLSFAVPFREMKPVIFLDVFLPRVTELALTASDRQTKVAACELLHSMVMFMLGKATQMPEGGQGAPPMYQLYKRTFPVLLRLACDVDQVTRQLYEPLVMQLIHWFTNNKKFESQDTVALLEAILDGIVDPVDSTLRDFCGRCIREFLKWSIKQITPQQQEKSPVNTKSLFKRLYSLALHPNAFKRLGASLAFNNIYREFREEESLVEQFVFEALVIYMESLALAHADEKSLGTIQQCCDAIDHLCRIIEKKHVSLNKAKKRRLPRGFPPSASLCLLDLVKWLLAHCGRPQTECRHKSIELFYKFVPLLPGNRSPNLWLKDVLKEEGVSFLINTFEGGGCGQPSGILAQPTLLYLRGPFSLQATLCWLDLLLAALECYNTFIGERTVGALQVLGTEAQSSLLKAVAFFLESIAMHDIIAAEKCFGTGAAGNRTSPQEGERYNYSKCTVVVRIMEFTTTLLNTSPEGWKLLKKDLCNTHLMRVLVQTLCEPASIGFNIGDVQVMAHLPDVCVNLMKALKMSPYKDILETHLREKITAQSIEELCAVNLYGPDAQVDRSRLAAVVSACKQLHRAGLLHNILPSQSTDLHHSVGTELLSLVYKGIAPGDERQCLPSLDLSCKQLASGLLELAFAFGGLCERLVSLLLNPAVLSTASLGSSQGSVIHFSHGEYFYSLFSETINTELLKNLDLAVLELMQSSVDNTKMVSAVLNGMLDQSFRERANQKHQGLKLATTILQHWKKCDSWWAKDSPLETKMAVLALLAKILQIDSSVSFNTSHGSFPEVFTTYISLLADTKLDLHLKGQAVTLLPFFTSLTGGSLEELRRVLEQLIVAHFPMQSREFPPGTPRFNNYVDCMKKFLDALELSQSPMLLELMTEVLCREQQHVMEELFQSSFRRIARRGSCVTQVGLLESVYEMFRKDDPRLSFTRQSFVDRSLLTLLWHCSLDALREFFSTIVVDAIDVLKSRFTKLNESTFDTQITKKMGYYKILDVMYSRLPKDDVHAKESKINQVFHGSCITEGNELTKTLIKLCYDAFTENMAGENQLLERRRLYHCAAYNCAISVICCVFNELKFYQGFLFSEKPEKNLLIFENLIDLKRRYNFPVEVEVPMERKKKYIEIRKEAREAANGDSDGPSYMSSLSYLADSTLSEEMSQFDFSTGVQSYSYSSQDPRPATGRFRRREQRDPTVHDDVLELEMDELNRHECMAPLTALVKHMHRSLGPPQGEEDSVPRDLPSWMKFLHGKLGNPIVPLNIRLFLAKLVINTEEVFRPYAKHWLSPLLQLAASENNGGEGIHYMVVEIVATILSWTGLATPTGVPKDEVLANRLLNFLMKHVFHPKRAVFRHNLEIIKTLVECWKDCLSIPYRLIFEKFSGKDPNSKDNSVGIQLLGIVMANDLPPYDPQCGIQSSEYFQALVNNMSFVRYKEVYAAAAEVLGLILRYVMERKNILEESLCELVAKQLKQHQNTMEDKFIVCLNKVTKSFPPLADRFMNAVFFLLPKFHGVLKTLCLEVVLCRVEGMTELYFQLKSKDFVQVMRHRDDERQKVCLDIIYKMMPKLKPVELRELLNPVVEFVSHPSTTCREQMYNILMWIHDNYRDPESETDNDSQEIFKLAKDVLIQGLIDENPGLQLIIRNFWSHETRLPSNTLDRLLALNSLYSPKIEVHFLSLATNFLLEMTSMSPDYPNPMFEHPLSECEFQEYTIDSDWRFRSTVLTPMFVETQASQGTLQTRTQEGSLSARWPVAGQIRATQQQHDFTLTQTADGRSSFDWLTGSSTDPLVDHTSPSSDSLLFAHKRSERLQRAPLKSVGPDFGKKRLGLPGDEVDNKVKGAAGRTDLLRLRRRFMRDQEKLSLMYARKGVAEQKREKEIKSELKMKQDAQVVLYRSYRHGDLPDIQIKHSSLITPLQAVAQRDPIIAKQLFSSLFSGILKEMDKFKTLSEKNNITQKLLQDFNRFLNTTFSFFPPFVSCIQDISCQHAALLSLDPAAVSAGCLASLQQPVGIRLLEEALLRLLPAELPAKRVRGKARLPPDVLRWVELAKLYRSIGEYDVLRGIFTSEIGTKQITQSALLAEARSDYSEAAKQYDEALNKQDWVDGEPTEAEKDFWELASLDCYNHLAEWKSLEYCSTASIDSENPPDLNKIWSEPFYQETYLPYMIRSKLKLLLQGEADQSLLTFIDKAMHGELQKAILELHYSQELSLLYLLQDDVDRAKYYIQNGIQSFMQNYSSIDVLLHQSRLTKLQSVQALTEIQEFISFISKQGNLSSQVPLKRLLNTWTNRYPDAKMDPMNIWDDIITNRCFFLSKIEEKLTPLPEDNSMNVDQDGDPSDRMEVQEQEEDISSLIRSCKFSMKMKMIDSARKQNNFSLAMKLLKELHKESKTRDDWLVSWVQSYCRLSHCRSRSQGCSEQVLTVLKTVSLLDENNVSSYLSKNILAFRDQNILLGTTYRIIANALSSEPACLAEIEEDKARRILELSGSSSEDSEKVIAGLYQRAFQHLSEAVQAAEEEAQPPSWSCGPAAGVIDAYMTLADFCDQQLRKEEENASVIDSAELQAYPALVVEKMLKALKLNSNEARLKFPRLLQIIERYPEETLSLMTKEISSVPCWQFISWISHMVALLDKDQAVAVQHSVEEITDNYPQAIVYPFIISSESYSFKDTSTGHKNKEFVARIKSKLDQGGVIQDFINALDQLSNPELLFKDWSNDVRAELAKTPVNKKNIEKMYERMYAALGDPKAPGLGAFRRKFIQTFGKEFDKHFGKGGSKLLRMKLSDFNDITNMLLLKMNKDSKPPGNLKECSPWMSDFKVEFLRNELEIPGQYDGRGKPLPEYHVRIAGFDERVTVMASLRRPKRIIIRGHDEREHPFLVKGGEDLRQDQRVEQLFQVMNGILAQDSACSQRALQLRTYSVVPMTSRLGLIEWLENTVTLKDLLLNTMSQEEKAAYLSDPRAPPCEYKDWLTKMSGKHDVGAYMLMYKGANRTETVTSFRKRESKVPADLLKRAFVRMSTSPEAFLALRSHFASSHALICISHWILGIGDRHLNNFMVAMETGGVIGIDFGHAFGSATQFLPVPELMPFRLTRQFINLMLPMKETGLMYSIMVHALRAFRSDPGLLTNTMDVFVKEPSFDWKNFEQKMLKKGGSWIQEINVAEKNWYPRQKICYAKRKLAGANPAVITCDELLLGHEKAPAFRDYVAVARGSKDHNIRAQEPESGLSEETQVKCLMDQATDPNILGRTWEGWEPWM

ANT2-HA = biological target: T3, ANT2-HA (human, UniProt P05141 1-298); assay: co-expression of ANT2-HA and FLAG-tagged uORF44 in HEK 293 T cells, immunoprecipitation by one tag, western blot by the other tag
T3 construct: Co-expressed with FLAG-tagged uORF44 in HEK 293 T cells; not shown: HA tag fused to the subtype
T3 sequence (looked up): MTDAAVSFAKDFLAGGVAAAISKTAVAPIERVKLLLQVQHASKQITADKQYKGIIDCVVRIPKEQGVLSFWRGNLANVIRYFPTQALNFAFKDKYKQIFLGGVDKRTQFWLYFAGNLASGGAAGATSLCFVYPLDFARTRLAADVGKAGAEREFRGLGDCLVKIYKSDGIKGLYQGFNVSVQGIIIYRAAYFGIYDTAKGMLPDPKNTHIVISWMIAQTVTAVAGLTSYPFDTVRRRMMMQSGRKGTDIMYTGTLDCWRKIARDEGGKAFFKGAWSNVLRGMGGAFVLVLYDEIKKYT
Description: The expression vector was transfected into HEK 293 T cells cultured in a 10 cm culture dish using Opt-MEM (Life Technologies) and FuGENE-HD (Promega). After 48 hours of transfection, the cells were washed with PBS and dissolved using 1 mL of lysis buffer (20 m Tris-HCl pH 7.5, 150 mM NaCl, 0.5% NP 40, 1×Complete EDTA free (Roche) 10 mM Glycerol 2-phosphate, 1 mM NaVO4) and allowed to stand on ice for 20 minutes. Thereafter, the cells were centrifuged at 4° C., 21,130×g for 30 minutes, and the supernatant was used for immunoprecipitation. 50 μL of anti-[…] antibody beads (Wako, 016-22784) or 50 μL of Monoclonal Anti-HA-Agarose (Sigma, A 2095) was used in the immunoprecipitation. The supernatant was mixed with antibody beads lysate, and slowly mixed at 4° C. for 1 hour. After completion of the antigen-antibody reaction, it was washed 3 times with 1 mL of a lysis buffer, and then the protein was eluted with 50 μL 1×SDS sample buffer. The eluted sample was subjected to electrophoresis by SDS-PAGE followed by western blotting or SYPRO Ruby staining. The western blotting was performed as described in paragraph “(5) Western blotting.” The SYPRO Ruby staining was performed using SYPRO Ruby protein gel stain (Life Technologies, S 12000), in accordance with a product manual. […]

T1 sequence (P11021 19-654 limits assumed): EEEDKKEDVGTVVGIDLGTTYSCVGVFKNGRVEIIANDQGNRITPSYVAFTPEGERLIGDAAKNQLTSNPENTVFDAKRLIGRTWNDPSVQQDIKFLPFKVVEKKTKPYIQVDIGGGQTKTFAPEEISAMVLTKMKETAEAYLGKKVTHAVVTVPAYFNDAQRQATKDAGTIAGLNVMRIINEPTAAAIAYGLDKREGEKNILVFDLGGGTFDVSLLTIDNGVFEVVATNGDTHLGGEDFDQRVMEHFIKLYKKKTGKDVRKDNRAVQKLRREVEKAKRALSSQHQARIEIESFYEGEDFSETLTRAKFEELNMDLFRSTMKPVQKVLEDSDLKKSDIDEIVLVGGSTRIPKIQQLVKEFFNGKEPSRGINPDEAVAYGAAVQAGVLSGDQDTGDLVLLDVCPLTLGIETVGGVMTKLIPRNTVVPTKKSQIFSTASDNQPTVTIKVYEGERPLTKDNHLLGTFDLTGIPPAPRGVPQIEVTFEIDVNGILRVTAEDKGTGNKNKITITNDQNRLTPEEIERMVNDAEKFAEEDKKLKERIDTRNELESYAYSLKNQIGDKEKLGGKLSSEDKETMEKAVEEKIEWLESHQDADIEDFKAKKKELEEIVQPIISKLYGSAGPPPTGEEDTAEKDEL

binding result (BIP): binds
binding result (DNA-PKcs): binds
binding result (ANT2-HA): binds
B1: FLAG-tagged uORF44p (protein derived from uORF44, an upstream ORF in the mRNA of ARHGEF9) (other, not shown: small tags and cut ends)
chain: MDSLTEQRLTSPNLPAPHLEHYSVLHCTMTLDVQTVVVFAVIVVLLLVNVILMFFLGTR
notes: Expressed from a pcDNA3 FLAG vector in HEK 293 T cells; also called uORF44 protein; mental activity-related protein

— patent US20190049459A1 (TOKYO INSTITUTE OF TECHNOLOGY, published 2019)
